In patent EP2420255A2 (Ecole Polytechnique Federale De Lausanne (EPFL), dated 2012):
Numbered stars: 1 amine (or outer) side, 2 acyl side, 3 side chain; on linkers, the order of the positions; unused ones are H or OH. Bridge positions count the residues as written; N and C are the ends. TBMB = c1c(C[*:1])cc(C[*:3])cc1C[*:2]

What was measured:
[1] = target: T1, human plasmin (HPLM, from human plasma, 85 kDa) (human, UniProt P00747 97-810, limits assumed); assay: enzyme inhibition, Ki calculated from IC50 by the Cheng-Prusoff equation, pH 7.4, 25 °C
T1 sequence (P00747 97-810 limits assumed): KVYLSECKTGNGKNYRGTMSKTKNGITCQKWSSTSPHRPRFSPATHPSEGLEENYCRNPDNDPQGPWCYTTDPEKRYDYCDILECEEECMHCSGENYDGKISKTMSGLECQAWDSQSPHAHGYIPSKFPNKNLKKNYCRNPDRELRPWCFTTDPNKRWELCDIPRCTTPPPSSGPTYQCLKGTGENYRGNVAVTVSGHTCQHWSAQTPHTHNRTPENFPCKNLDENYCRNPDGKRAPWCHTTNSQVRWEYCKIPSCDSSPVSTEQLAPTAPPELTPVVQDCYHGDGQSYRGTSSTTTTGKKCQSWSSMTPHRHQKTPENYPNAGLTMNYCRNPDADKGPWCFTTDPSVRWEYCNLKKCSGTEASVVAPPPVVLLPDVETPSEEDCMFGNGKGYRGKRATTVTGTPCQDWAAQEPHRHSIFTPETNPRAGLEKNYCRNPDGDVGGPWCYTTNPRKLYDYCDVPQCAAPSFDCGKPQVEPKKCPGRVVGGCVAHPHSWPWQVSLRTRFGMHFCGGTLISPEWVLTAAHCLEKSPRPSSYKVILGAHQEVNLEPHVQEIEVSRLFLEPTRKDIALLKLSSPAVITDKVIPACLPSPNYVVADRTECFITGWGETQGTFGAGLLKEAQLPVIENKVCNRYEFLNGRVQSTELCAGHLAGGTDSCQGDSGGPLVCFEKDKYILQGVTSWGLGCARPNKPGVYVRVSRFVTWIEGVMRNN

[2] = target: T2, human tPA (HTPA-TC, recombinant, 70 kDa) (human, UniProt P00750 36-562); assay: as above
T2 sequence (P00750 36-562 limits assumed): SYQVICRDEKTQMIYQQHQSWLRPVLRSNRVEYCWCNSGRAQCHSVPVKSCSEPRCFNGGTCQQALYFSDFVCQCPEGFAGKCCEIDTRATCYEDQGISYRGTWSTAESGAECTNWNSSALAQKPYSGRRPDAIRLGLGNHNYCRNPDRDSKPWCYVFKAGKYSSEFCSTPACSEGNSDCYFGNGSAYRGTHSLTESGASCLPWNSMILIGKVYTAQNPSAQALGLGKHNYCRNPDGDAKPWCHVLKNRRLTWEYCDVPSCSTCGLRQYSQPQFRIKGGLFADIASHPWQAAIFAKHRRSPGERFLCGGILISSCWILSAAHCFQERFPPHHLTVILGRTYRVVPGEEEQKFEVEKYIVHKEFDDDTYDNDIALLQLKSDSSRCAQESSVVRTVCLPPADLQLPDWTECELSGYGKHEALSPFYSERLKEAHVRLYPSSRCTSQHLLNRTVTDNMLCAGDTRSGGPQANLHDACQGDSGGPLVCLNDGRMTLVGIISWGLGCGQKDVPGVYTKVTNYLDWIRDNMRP

[3] = target: T3, human urokinase-type plasminogen activator (UPA-LMW, from human urine, 33 kDa) (human, UniProt P00749 156-431); assay: as above
[4] = target: T4, human plasma kallikrein (IHPKA, from human plasma, 86 kDa) (human, UniProt P03952 20-638); assay: as above
T4 sequence (P03952 20-638 limits assumed): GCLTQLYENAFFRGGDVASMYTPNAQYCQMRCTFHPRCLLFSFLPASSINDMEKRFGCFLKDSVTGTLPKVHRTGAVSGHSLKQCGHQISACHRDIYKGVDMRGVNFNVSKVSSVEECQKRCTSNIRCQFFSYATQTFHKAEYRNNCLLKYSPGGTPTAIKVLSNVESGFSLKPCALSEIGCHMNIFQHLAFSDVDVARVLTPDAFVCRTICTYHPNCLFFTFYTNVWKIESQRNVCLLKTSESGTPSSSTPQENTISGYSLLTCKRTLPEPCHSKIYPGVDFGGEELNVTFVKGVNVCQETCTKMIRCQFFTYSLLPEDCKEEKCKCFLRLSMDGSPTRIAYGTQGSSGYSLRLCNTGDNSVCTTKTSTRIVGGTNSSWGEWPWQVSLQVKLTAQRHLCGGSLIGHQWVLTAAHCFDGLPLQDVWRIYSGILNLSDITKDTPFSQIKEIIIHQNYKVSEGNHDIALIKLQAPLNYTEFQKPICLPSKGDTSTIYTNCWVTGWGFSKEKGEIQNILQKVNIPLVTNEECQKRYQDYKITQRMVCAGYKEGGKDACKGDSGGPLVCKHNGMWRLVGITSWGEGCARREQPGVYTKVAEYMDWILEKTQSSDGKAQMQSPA

[5] = target: T5, mouse tPA (MTPA, recombinantly produced in insect cells, 70 kDa) (mouse, UniProt P11214 33-559, limits assumed); assay: as above
T5 construct: also called murine tPA
T5 sequence (P11214 33-559 limits assumed): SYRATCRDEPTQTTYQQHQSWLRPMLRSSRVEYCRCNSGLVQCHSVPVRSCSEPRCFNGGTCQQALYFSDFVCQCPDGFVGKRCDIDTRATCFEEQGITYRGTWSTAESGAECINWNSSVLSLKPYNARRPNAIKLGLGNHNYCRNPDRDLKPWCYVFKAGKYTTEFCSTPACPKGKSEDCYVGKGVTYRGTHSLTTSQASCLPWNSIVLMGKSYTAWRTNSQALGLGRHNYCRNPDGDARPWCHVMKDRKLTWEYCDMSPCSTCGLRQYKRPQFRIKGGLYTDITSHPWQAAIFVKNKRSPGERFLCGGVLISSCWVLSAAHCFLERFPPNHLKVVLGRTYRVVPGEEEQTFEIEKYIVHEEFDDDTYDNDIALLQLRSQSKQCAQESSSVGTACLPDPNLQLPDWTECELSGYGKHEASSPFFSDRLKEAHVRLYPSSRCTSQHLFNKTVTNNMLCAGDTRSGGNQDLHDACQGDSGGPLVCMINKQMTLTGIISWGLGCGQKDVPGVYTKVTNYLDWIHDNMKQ

[6] = target: T6, human factor XIa (IHFXI, from human plasma, 160 kDa) (human, UniProt P03951 19-625); assay: as above
T6 construct: Printed 'factor Xla'; read as factor XIa; also called human factor Xla
T6 sequence (P03951 19-625 limits assumed): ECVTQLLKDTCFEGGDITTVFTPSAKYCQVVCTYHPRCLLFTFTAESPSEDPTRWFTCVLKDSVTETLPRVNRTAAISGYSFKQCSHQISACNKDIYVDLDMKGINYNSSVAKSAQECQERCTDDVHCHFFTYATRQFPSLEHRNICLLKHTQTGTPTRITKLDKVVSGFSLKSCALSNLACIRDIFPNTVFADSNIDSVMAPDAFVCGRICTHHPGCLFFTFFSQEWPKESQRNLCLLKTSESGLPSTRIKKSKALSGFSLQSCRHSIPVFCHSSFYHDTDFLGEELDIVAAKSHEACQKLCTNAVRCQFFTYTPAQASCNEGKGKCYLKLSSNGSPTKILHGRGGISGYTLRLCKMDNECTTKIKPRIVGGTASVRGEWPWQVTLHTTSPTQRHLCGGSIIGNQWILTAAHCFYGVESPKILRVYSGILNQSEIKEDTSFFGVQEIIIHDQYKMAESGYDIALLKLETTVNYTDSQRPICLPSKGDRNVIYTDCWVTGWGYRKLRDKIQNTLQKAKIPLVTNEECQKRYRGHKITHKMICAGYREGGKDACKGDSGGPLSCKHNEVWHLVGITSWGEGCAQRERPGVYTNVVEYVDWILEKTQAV

[7] = target: T7, mouse uPA (MUPA-LMW, recombinantly produced in insect cells, 31 kDa) (mouse, UniProt P06869 157-433, limits assumed); assay: as above
T7 construct: also called murine uPA
T7 sequence (P06869 157-433 limits assumed): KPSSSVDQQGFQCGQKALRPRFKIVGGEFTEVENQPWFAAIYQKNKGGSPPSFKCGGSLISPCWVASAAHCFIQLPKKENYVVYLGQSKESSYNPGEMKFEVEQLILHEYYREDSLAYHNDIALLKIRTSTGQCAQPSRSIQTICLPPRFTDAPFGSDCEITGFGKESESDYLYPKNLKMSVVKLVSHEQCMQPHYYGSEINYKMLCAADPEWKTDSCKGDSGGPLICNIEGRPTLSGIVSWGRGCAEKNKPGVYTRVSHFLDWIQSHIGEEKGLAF

[8] = target: T8, human trypsin (HTRYP, from human pancreas, 25 kDa) (human, UniProt P07477 24-247); assay: as above
[9] = target: T9, human thrombin (IHT, from human plasma, 37 kDa) (human, UniProt P00734 328-622); assay: as above
[10] = target: T3, human urokinase-type plasminogen …; assay: enzyme inhibition, Ki
[11] = target: T7, mouse uPA (MUPA-LMW, recombinantly …); assay: enzyme inhibition, Ki
[12] = target: T1, human plasmin (HPLM, from human plasma, …); assay: cell-based or functional assay
[13] = target: T2, human tPA (HTPA-TC, recombinant, 70 kDa); assay: cell-based or functional assay
[14] = target: T3, human urokinase-type plasminogen …; assay: cell-based or functional assay
[15] = target: T4, human plasma kallikrein (IHPKA, from …); assay: cell-based or functional assay
[16] = target: T5, mouse tPA (MTPA, recombinantly produced …); assay: cell-based or functional assay
[17] = target: T6, human factor XIa (IHFXI, from human …); assay: cell-based or functional assay
[18] = target: T7, mouse uPA (MUPA-LMW, recombinantly …); assay: cell-based or functional assay
[19] = target: T8, human trypsin (HTRYP, from human …); assay: cell-based or functional assay
[20] = target: T9, human thrombin (IHT, from human plasma, …); assay: cell-based or functional assay
[21] = target: T3, human urokinase-type plasminogen …; assay: enzyme inhibition of human uPA, residual activity

B1: UK18 bicyclic peptide (chemically synthesized peptide-TBMB conjugate, H-ACSRYEVDCRGRGSACG-NH2 cyclised with tris-(bromomethyl)benzene) (peptide)
peptide: H-ACSRYEVDCRGRGSACG-NH2
modifications: linker 2-9-16 via TBMB
SMILES: CC(C)[C@@H]1NC(=O)[C@H](CCC(=O)O)NC(=O)[C@H](Cc2ccc(O)cc2)NC(=O)[C@H](CCCNC(=N)N)NC(=O)[C@H](CO)NC(=O)[C@@H](NC(=O)[C@H](C)N)CSCc2cc3cc(c2)CSC[C@H](NC(=O)[C@H](CC(=O)O)NC1=O)C(=O)N[C@@H](CCCNC(=N)N)C(=O)NCC(=O)N[C@@H](CCCNC(=N)N)C(=O)NCC(=O)N[C@@H](CO)C(=O)N[C@@H](C)C(=O)N[C@H](C(=O)NCC(N)=O)CSC3
notes: Synthetic bicyclic peptide, 1903 Da after reaction with TBMB; also called clone 18; TBMB-cyclised UK18 peptide
Q: What does the source list for B1?
A: Ki [1]: 36.9 µM; Ki [2]: 56.1 µM; Ki [3]: 0.03 µM; Ki [4]: 30.5 µM; Ki [5]: 33.7 µM; Ki [6]: 40.4 µM; Ki [7]: 42 µM; Ki [8]: 34.9 µM; Ki [9]: 23.1 µM; fold better inhibition than of other serine proteases [10]: ~1000 fold; fold of Ki against the Ki of human uPA [11]: ~1400 fold; IC50 (µM), residual protease activity, substrate H-D-Val-Leu-Lys-AMC [12]: 57.5 µM; IC50 (µM), residual protease activity, substrate Z-Gly-Gly-Arg-AMC [13]: 87.5 µM; IC50 (µM), residual protease activity, substrate Z-Gly-Gly-Arg-AMC [14]: 0.047 µM; IC50 (µM), residual protease activity, substrate Z-Phe-Arg-AMC [15]: 47.5 µM; IC50 (µM), residual protease activity, substrate Z-Gly-Gly-Arg-AMC [16]: 52.5 µM; IC50 (µM), residual protease activity, substrate Boc-Phe-Ser-Arg-AMC [17]: 63 µM; IC50 (µM), residual protease activity, substrate Z-Gly-Gly-Arg-AMC [18]: 65.5 µM; IC50 (µM), residual protease activity, substrate Z-Gly-Gly-Arg-AMC [19]: 54.5 µM; IC50 (µM), residual protease activity, substrate Z-Gly-Gly-Arg-AMC [20]: 36 µM

B2: linear UK18 peptide with serine instead of cysteine in positions 2, 9 and 16 (H-ASSRYEVDSRGRGSASG-NH2) (peptide)
peptide: H-ASSRYEVDSRGRGSASG-NH2
notes: Not conjugated to TBMB; M = 1740.0 Da; also called UK18ser
Q: For B2, which Ki [21] is on record?
A: Its Ki is 5.8 µM.

Q: What about the “fold weaker inhibition than the TBMB-cyclised UK18 peptide” value [21] of the same binder?
A: Its value is ~200 fold.
